The target in this test is HSPB1 wild-type (human, UniProt P04792 1-205). The test can be described thus: NMR titration.
Sequence of HSPB1 wild-type (P04792 whole entry): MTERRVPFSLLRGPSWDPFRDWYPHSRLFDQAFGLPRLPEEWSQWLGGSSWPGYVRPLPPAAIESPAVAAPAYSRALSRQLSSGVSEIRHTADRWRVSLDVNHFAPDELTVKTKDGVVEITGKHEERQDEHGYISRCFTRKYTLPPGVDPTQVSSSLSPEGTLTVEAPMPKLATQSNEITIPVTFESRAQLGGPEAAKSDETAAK

B1: TDP-43 LCD (domain or fragment, UniProt Q13148 274-414, looked up)
chain: GRFGGNPGGFGNQGGFGNSRGGGAGLGNNQGSNMGGGMNFGAFSINPAMMAAAQAALQSSWGMMGMLASQQNQSGPSGNNQNQGNMQREPNQAFGSGNNSYSGSNSGAAIGWGSASNAGSGSGFNGGFGSSMDSKSSGWGM
For B1, the binding result was “binds”.

(Values after article PMC9872726 (Nature cell biology, 2022).)
